± gives the uncertainty stated by the source.
Test: self-splicing fitness, log relative to wild type (ln ratio); higher = more splicing; Tetrahymena group I intron in knt gene, E. coli kanamycin selection, DiMSum; sequences stand for … in CUCUCU…GGAGGGAAAAGUUAUCAGGCAUGCACCUGGUAGCUAGUCUUUAAACCAAUAGAUUGCAUCGGUUUAAAAGGCAAGACCGUCAAAUUGCGGGAAAGGGGUCAACAGCCGUUCAGUACCAAGUCUCAGGGGAAACUUUGAGAUGGCCUUGCAAAGGGUAUGGUAAUAAGCUGACGGACAUGGUCCUAACCACGCAGCCAAGUCCUAAGUCAACAGAUCUUCUGUUGAUAUGGAUGCAGUUCACAGACUAAAUGUCGGUCGGGGAAGAUGUAUUCUUCUCAUAAGAUAUAGUCGGACCUCUCCUUAAUGGGAGCUAGCGGAUGAAGUGAUGCAACACUGGAGCCGCUGGGAACUAAUUUGUAUGCGAAAGUAUAUUGAUUAGUUUUGGAGUACUCGUGGUCG
Summary of the method: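 Fitness was computed with DiMSum as the error-weighted combination of replicate fold changes, kanamycin versus none, each normalised to wild type. The library randomised all eight intron nucleotides of the P1ex region, with the intron placed in the knt kanamycin-resistance gene on pET-22b(+) in E. coli BL21(DE3). Six replicate transformations were grown overnight at 37°C or 30°C on LB agar with or without 25 μg/mL kanamycin, plus 100 μg/mL carbenicillin, 50 μM IPTG and 0.2% rhamnose. Pooled colonies were amplicon-sequenced on an Illumina HiSeq 2500.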

Row | Sequence | self-splicing fitness (ln) (30 °C) | self-splicing fitness (ln) (37 °C)
1 | GACCAGCAAUAUUACGUCGC | -1.89 ± 0.1 | -0.411 ± 0.13
2 | AUUUAGCAAUAUUACGCGGA | -1.73 ± 0.23 | -0.805 ± 0.17
3 | UUUGAGCAAUAUUACGCCAA |  | -1.56 ± 0.27
4 | UAUGAGCAAUAUUACGUUGC | -2.19 ± 0.19 | -2.65 ± 0.23
5 | AAAGAGCAAUAUUACGGCGA | -1.65 ± 0.22 | -1.26 ± 0.3
6 | CAUCAGCAAUAUUACGUGCC | -2.97 ± 0.16 | -2.47 ± 0.24
7 | AGCCAGCAAUAUUACGGAUA | -1.63 ± 0.11 | -1.51 ± 0.12
8 | UCCCAGCAAUAUUACGGAAC | -4.36 ± 0.27 | -2.65 ± 0.18
9 | UGUCAGCAAUAUUACGCAUA | -0.485 ± 0.06 | 0.0762 ± 0.068
10 | CUCAAGCAAUAUUACGUCUG | -4.24 ± 0.28 | -1.36 ± 0.17
11 | GGAUAGCAAUAUUACGUAUU | -3.05 ± 0.2 | -2.21 ± 0.28
12 | UACGAGCAAUAUUACGUAUC | -2.79 ± 0.16 | -2.99 ± 0.27
13 | GAAGAGCAAUAUUACGCCCC | -1.93 ± 0.17 | -0.902 ± 0.18
14 | CAAUAGCAAUAUUACGAGUC | -4.09 ± 0.34 | -2.75 ± 0.28
15 | AAGGAGCAAUAUUACGUGGU | -2.94 ± 0.2 | -1.36 ± 0.22
16 | AACUAGCAAUAUUACGUCUG | -1.86 ± 0.088 | -1.37 ± 0.088
17 | CGAAAGCAAUAUUACGCCGU | -2.98 ± 0.16 | -0.862 ± 0.12
18 | GGUUAGCAAUAUUACGGGGU | -3.61 ± 0.4 | -0.0656 ± 0.17
19 | UAGUAGCAAUAUUACGUAUU | -4.59 ± 0.36 | -1.96 ± 0.2
20 | ACUCAGCAAUAUUACGCUAA | -1.63 ± 0.1 | -0.781 ± 0.1

Row | Sequence | self-splicing fitness (ln) (30 °C) | self-splicing fitness (ln) (37 °C)
21 | AAAGAGCAAUAUUACGUUUU | -2.46 ± 0.11 | -1.91 ± 0.12
22 | AAAGAGCAAUAUUACGAGAG | -3.36 ± 0.19 | -3.42 ± 0.21
23 | ACUCAGCAAUAUUACGGGGA | -1.24 ± 0.074 | -0.173 ± 0.082
24 | GAGUAGCAAUAUUACGUGGG | -3.53 ± 0.24 | -2.94 ± 0.23
25 | ACUUAGCAAUAUUACGGCUG | -1.32 ± 0.062 | -0.174 ± 0.082
26 | CACCAGCAAUAUUACGCAAA | -4.2 ± 0.27 | -2.99 ± 0.2
27 | UUCAAGCAAUAUUACGCUGU | -2.98 ± 0.17 | -1.19 ± 0.14
28 | UUAGAGCAAUAUUACGCAUG | -1.12 ± 0.11 | -0.298 ± 0.12
29 | CGGUAGCAAUAUUACGCACU | -1.64 ± 0.26 | 0.00723 ± 0.27
30 | AGUUAGCAAUAUUACGCUCC | -1.45 ± 0.45 | -1.02 ± 0.33
31 | GAGGAGCAAUAUUACGCGGU | -3.21 ± 0.28 | -2.76 ± 0.31
32 | GGGUAGCAAUAUUACGGUUC | -0.821 ± 0.095 | 0.258 ± 0.13
33 | CCUUAGCAAUAUUACGGGCU | -4.07 ± 0.28 | -2.87 ± 0.22
34 | AGAUAGCAAUAUUACGGCGC | -1.32 ± 0.14 | -0.0937 ± 0.15
35 | UACCAGCAAUAUUACGUAGU | -2.96 ± 0.099 | -1.65 ± 0.1
36 | GCCUAGCAAUAUUACGGCUG | -1.88 ± 0.15 | -3.29 ± 0.42
37 | AGUCAGCAAUAUUACGUCUC | -4.29 ± 0.31 | -2.01 ± 0.15
38 | GAGUAGCAAUAUUACGUUAG | -3.69 ± 0.37 | -2.96 ± 0.34
39 | ACCCAGCAAUAUUACGGCAC | -0.669 ± 0.079 | 0.0747 ± 0.12
40 | CGCCAGCAAUAUUACGCCGC | -2.72 ± 0.21 | -1.39 ± 0.39

Row | Sequence | self-splicing fitness (ln) (30 °C) | self-splicing fitness (ln) (37 °C)
41 | GUGUAGCAAUAUUACGCUUU | -3.2 ± 0.21 | -2.54 ± 0.22
42 | AUCCAGCAAUAUUACGAACU | -1.98 ± 0.15 | -0.753 ± 0.18
43 | AUUGAGCAAUAUUACGCACU | -0.165 ± 0.14 | -0.756 ± 0.15
44 | CGAGAGCAAUAUUACGCGUU | -2.8 ± 0.36 | -2.46 ± 0.49
45 | UAUGAGCAAUAUUACGAAUG | -2.49 ± 0.17 | -1.28 ± 0.18
46 | GAUUAGCAAUAUUACGAUUG | -1.71 ± 0.13 | -0.919 ± 0.18
47 | CAUGAGCAAUAUUACGUAUU | -3.86 ± 0.46 | -0.455 ± 0.16
48 | UGAAAGCAAUAUUACGUGCA | 0.0492 ± 0.078 | 0.75 ± 0.098
49 | AAGAAGCAAUAUUACGUCGG | -0.907 ± 0.12 | -1.02 ± 0.14
50 | UUGCAGCAAUAUUACGCUGU | -2.71 ± 0.35 | -1.23 ± 0.32
51 | AUGCAGCAAUAUUACGCGUU | -2.4 ± 0.088 | -2.7 ± 0.19
52 | UUGCAGCAAUAUUACGUCAA | -1.48 ± 0.1 | -0.523 ± 0.11
53 | GAUGAGCAAUAUUACGCCGU |  | -2.33 ± 0.46
54 | UGAGAGCAAUAUUACGUCGA | -2.82 ± 0.39 | -3.1 ± 0.47
55 | GGCGAGCAAUAUUACGAUAU | -2.12 ± 0.12 | -0.859 ± 0.12
56 | UAGUAGCAAUAUUACGGUUA | -0.28 ± 0.077 | 0.03 ± 0.091
57 | UAACAGCAAUAUUACGAAUG | -0.844 ± 0.085 | -0.788 ± 0.098
58 | GGACAGCAAUAUUACGUGAG | 0.177 ± 0.058 | -0.254 ± 0.062
59 | UGAUAGCAAUAUUACGUGUU | -3.87 ± 0.19 | -2.6 ± 0.2
60 | GGAAAGCAAUAUUACGACUG | -1.93 ± 0.15 | -0.134 ± 0.19

Reference: the supplement of paper PMC7877785
